Experimental data as given in US20250043302A1, “MUTATED HYDROXYPHENYLPYRUVATE DIOXYGENASE POLYPEPTIDE, AND CODING GENE AND USE THEREOF” (BEIJING DABEINONG BIOTECHNOLOGY CO., LTD., priority 2021, published 2025).

Experiments:
Format in all cases: in vivo
[1] = tested on: Arabidopsis thaliana T1 plants; assay: Topramezone tolerance of transgenic Arabidopsis thaliana T1 plants (spray, bleached leaf area grade, damage score); conditions: for Resistance evaluation / Scores / Grade 0 (classification and statistics of the grade of pesticide damage; number of plants) / Grade 1 (classification and statistics of the grade of pesticide damage; number of plants) / Grade 2 (classification and statistics of the grade of pesticide damage; number of plants) / Grade 3 (classification and statistics of the grade of pesticide damage; number of plants): Arabidopsis thaliana T1 plants; for Grade 0 (classification and statistics of the grade of pesticide damage; number of plants) / Grade 1 (classification and statistics of the grade of pesticide damage; number of plants) / Grade 2 (classification and statistics of the grade of pesticide damage; number of plants) / Grade 3 (classification and statistics of the grade of pesticide damage; number of plants): 16 plants; for tolerance to topramezone (resistance class): topramezone at four-fold or eight-fold field concentration
How it was run: (§1)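 Damage graded 0–3 from the proportion of bleached leaf area 7 days after spraying. Plants were glufosinate-selected T1 lines, 18 days after sowing, plus vector and wild-type controls. Rates: mesotrione 52.5–420, isoxaflutole 35–280, topramezone 25–200 g ai/ha, with water (0×).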

[2] = tested on: Arabidopsis thaliana T1 plants; assay: Isoxaflutole tolerance of transgenic Arabidopsis thaliana T1 plants (spray, bleached leaf area grade, damage score); conditions: Arabidopsis thaliana T1 plants; for Grade 0 (classification and statistics of the grade of pesticide damage; number of plants) / Grade 1 (classification and statistics of the grade of pesticide damage; number of plants) / Grade 2 (classification and statistics of the grade of pesticide damage; number of plants) / Grade 3 (classification and statistics of the grade of pesticide damage; number of plants): 16 plants;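 as to Scores: Weighted damage index from 0 to 100 where higher means more damage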
How it was run: as §1

[3] = tested on: Arabidopsis thaliana T1 plants; assay: Mesotrione tolerance of transgenic Arabidopsis thaliana T1 plants (spray, bleached leaf area grade, damage score); parameters: Scores: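 damage score 0-100 computed as Σ(N×S)/(T×M)×100 over grades 0-3 with higher meaning more damage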; conditions: Table 9; for Classification and statistics of the grade of pesticide damage Grade 0: number of plants at grade 0; for Classification and statistics of the grade of pesticide damage Grade 1: number of plants at grade 1; for Classification and statistics of the grade of pesticide damage Grade 2: number of plants at grade 2; for Classification and statistics of the grade of pesticide damage Grade 3: number of plants at grade 3; for Scores: pesticide damage score
How it was run: as §1

[4] = topramezone 100 g ai/ha (4x field concentration)
[5] = topramezone 200 g ai/ha (8x field concentration)
[6] = isoxaflutole 140 g ai/ha (2x field concentration)
[7] = isoxaflutole 280 g ai/ha (4x field concentration)

Molecule | Resistance evaluation [1, 4] | Scores [1, 4] | Grade 0 (classification and statistics of the grade of pesticide damage; number of plants) [1, 4] | Grade 1 (classification and statistics of the grade of pesticide damage; number of plants) [1, 4] | Grade 2 (classification and statistics of the grade of pesticide damage; number of plants) [1, 4] | Grade 3 (classification and statistics of the grade of pesticide damage; number of plants) [1, 4] | Resistance evaluation [1, 5] | Scores [1, 5] | Grade 0 (classification and statistics of the grade of pesticide damage; number of plants) [1, 5] | Grade 1 (classification and statistics of the grade of pesticide damage; number of plants) [1, 5] | Grade 2 (classification and statistics of the grade of pesticide damage; number of plants) [1, 5] | Grade 3 (classification and statistics of the grade of pesticide damage; number of plants) [1, 5] | tolerance to topramezone (resistance class) [1] | Resistance evaluation [2, 6] | Scores [2, 6] | Grade 0 (classification and statistics of the grade of pesticide damage; number of plants) [2, 6] | Grade 1 (classification and statistics of the grade of pesticide damage; number of plants) [2, 6] | Grade 2 (classification and statistics of the grade of pesticide damage; number of plants) [2, 6] | Grade 3 (classification and statistics of the grade of pesticide damage; number of plants) [2, 6] | Resistance evaluation [2, 7] | further results
AsHPPDm-F372V-02: nucleotide sequence encoding Avena sativa HPPD with F372V; vector DBN11776 (nucleic acid, AsHPPDm-F372V-02 Nucleotide Sequence, vector DBN11776) DNA: ATGCCACCTACTCCAGCTACAGCTACTGGTGCTGCTGCTGCTGCCGTTACTCCTGAGCACGCTGCCAGGTCATTCCCCAGGGTGGTTCGCGTGAACCCCAGATCTGATAGGTTCCCAGTTCTGAGCTTCCACCATGTTGAGCTGTGGTGCGCTGATGCTGCTTCTGCTGCTGGCAGGTTCTCTTTCGCTCTTGGTGCTCCACTCGCTGCTAGATCTGATCTGTCTACAGGAAATAGCGCTCATGCCTCACTCCTGCTTCGCTCAGGTGCTTTGGCCTTCCTCTTCACCGCTCCATATGCTCCCCCACCTCAGGAGGCTGCTACTGCTGCTGCTACAGCCTCCATTCCAAGCTTCTCAGCTGATGCCGCTAGAACCTTCGCTGCTGCTCATGGACTTGCCGTGAGGTCTGTTGGTGTTCGCGTGGCTGATGCTGCTGAGGCTTTCAGAGTTTCCGTTGCCGGCGGAGCTAGGCCAGCTTTCGCTCCTGCTGATTTGGGACATGGTTTCGGCCTGGCTGAGGTTGAGCTTTACGGTGACGTGGTTCTCCGCTTCGTGTCTTACCCAGATGAGACTGACCTGCCTTTCCTTCCCGGCTTCGAGAGAGTTTCCTCTCCTGGTGCCGTGGATTACGGCCTGACAAGGTTCGACCACGTGGTTGGAAACGTTCCCGAGATGGCTCCAGTGATCGATTACATGAAGGGCTTCCTTGGATTCCATGAGTTCGCCGAGTTCACTGCTGAGGACGTGGGAACCACTGAGTCCGGTTTGAACTCTGTGGTTCTCGCCAACAATTCTGAGGCTGTTTTGCTCCCTCTGAATGAGCCTGTGCATGGAACCAAGAGGAGAAGCCAGATTCAAACTTACCTGGAGTACCACGGTGGCCCTGGAGTTCAGCATATCGCCCTTGCTTCTAATGATGTGTTGCGCACACTCAGAGAGATGCGCGCCAGAACCCCCATGGGAGGTTTCGAGTTCATGGCCCCACCACAGGCTAAGTACTACGAGGGCGTTAGAAGGATTGCTGGAGACGTGTTGAGCGAGGAGCAGATCAAGGAGTGCCAAGAGCTGGGTGTTCTTGTGGATAGGGATGACCAGGGCGTTCTGCTTCAAATTGTCACTAAGCCAGTGGGCGACCGCCCTACATTCTTCCTTGAGATGATTCAAAGAATCGGCTGCATGGAGAAGGATGAGGTTGGACAGGAGTACCAAAAGGGCGGATGCGGTGGCTTCGGAAAGGGTAACTTCAGCGAGTTGTTCAAGTCAATCGAGGACTACGAGAAGAGCCTCGAGGTGAAGCAGTCAGTGGTTGCCCAAAAGTCCTGA | Highly resistant | 0 | 16 | 0 | 0 | 0 | Highly resistant | 0 | 16 | 0 | 0 | 0 | highly-resistant | Moderately | 33 | 6 | 5 | 4 | 1 | Poorly resistant | Scores [2, 7]: 67; Grade 0 (classification and statistics of the grade of pesticide damage; number of plants) [2, 7]: 0; Grade 1 (classification and statistics of the grade of pesticide damage; number of plants) [2, 7]: 0; Grade 2 (classification and statistics of the grade of pesticide damage; number of plants) [2, 7]: 16; Grade 3 (classification and statistics of the grade of pesticide damage; number of plants) [2, 7]: 0; Resistance evaluation ([3]; mesotrione 210 g ai/ha (2×)): Moderately; Classification and statistics of the grade of pesticide damage Grade 0 ([3]; mesotrione 210 g ai/ha (2×)): 5; Classification and statistics of the grade of pesticide damage Grade 1 ([3]; mesotrione 210 g ai/ha (2×)): 7; Classification and statistics of the grade of pesticide damage Grade 2 ([3]; mesotrione 210 g ai/ha (2×)): 4; Classification and statistics of the grade of pesticide damage Grade 3 ([3]; mesotrione 210 g ai/ha (2×)): 0; Scores ([3]; mesotrione 210 g ai/ha (2×)): 31; Resistance evaluation ([3]; mesotrione 420 g ai/ha (4×)): Poorly resistant; Classification and statistics of the grade of pesticide damage Grade 0 ([3]; mesotrione 420 g ai/ha (4×)): 0; Classification and statistics of the grade of pesticide damage Grade 1 ([3]; mesotrione 420 g ai/ha (4×)): 8; Classification and statistics of the grade of pesticide damage Grade 2 ([3]; mesotrione 420 g ai/ha (4×)): 7; Classification and statistics of the grade of pesticide damage Grade 3 ([3]; mesotrione 420 g ai/ha (4×)): 1; Scores ([3]; mesotrione 420 g ai/ha (4×)): 52
AsHPPDm-F372V-F383W-02: nucleotide sequence encoding Avena sativa HPPD with F372V+F383W; vector DBN11777 (nucleic acid, AsHPPDm-F372V-F383W-02 Nucleotide Sequence, vector DBN11777) DNA: ATGCCACCTACTCCAGCTACAGCTACTGGTGCTGCTGCTGCTGCCGTTACTCCTGAGCACGCTGCCAGGTCATTCCCCAGGGTGGTTCGCGTGAACCCCAGATCTGATAGGTTCCCAGTTCTGAGCTTCCACCATGTTGAGCTGTGGTGCGCTGATGCTGCTTCTGCTGCTGGCAGGTTCTCTTTCGCTCTTGGTGCTCCACTCGCTGCTAGATCTGATCTGTCTACAGGAAATAGCGCTCATGCCTCACTCCTGCTTCGCTCAGGTGCTTTGGCCTTCCTCTTCACCGCTCCATATGCTCCCCCACCTCAGGAGGCTGCTACTGCTGCTGCTACAGCCTCCATTCCAAGCTTCTCAGCTGATGCCGCTAGAACCTTCGCTGCTGCTCATGGACTTGCCGTGAGGTCTGTTGGTGTTCGCGTGGCTGATGCTGCTGAGGCTTTCAGAGTTTCCGTTGCCGGCGGAGCTAGGCCAGCTTTCGCTCCTGCTGATTTGGGACATGGTTTCGGCCTGGCTGAGGTTGAGCTTTACGGTGACGTGGTTCTCCGCTTCGTGTCTTACCCAGATGAGACTGACCTGCCTTTCCTTCCCGGCTTCGAGAGAGTTTCCTCTCCTGGTGCCGTGGATTACGGCCTGACAAGGTTCGACCACGTGGTTGGAAACGTTCCCGAGATGGCTCCAGTGATCGATTACATGAAGGGCTTCCTTGGATTCCATGAGTTCGCCGAGTTCACTGCTGAGGACGTGGGAACCACTGAGTCCGGTTTGAACTCTGTGGTTCTCGCCAACAATTCTGAGGCTGTTTTGCTCCCTCTGAATGAGCCTGTGCATGGAACCAAGAGGAGAAGCCAGATTCAAACTTACCTGGAGTACCACGGTGGCCCTGGAGTTCAGCATATCGCCCTTGCTTCTAATGATGTGTTGCGCACACTCAGAGAGATGCGCGCCAGAACCCCCATGGGAGGTTTCGAGTTCATGGCCCCACCACAGGCTAAGTACTACGAGGGCGTTAGAAGGATTGCTGGAGACGTGTTGAGCGAGGAGCAGATCAAGGAGTGCCAAGAGCTGGGTGTTCTTGTGGATAGGGATGACCAGGGCGTTCTGCTTCAAATTGTCACTAAGCCAGTGGGCGACCGCCCTACATTCTGGCTTGAGATGATTCAAAGAATCGGCTGCATGGAGAAGGATGAGGTTGGACAGGAGTACCAAAAGGGCGGATGCGGTGGCTTCGGAAAGGGTAACTTCAGCGAGTTGTTCAAGTCAATCGAGGACTACGAGAAGAGCCTCGAGGTGAAGCAGTCAGTGGTTGCCCAAAAGTCCTGA | Highly resistant | 0 | 16 | 0 | 0 | 0 | Highly resistant | 0 | 16 | 0 | 0 | 0 | highly-resistant | Highly resistant | 0 | 16 | 0 | 0 | 0 | Highly resistant | Scores [2, 7]: 10; Grade 0 (classification and statistics of the grade of pesticide damage; number of plants) [2, 7]: 12; Grade 1 (classification and statistics of the grade of pesticide damage; number of plants) [2, 7]: 3; Grade 2 (classification and statistics of the grade of pesticide damage; number of plants) [2, 7]: 1; Grade 3 (classification and statistics of the grade of pesticide damage; number of plants) [2, 7]: 0; Resistance evaluation ([3]; mesotrione 210 g ai/ha (2×)): Highly resistant; Classification and statistics of the grade of pesticide damage Grade 0 ([3]; mesotrione 210 g ai/ha (2×)): 16; Classification and statistics of the grade of pesticide damage Grade 1 ([3]; mesotrione 210 g ai/ha (2×)): 0; Classification and statistics of the grade of pesticide damage Grade 2 ([3]; mesotrione 210 g ai/ha (2×)): 0; Classification and statistics of the grade of pesticide damage Grade 3 ([3]; mesotrione 210 g ai/ha (2×)): 0; Scores ([3]; mesotrione 210 g ai/ha (2×)): 0; Resistance evaluation ([3]; mesotrione 420 g ai/ha (4×)): Highly resistant; Classification and statistics of the grade of pesticide damage Grade 0 ([3]; mesotrione 420 g ai/ha (4×)): 15; Classification and statistics of the grade of pesticide damage Grade 1 ([3]; mesotrione 420 g ai/ha (4×)): 1; Classification and statistics of the grade of pesticide damage Grade 2 ([3]; mesotrione 420 g ai/ha (4×)): 0; Classification and statistics of the grade of pesticide damage Grade 3 ([3]; mesotrione 420 g ai/ha (4×)): 0; Scores ([3]; mesotrione 420 g ai/ha (4×)): 2
